Source: PMC6056499, “A systematic dissection of sequence elements determining β-Klotho and FGF interaction and signaling” (Scientific Reports, 2018)

T1: human β-Klotho extracellular domain (aa1–992) fused with a 6 × His tag at the C-terminus (human, UniProt Q86Z14 1-992, biotin (EZ-Link Sulfo-NHS-LC-Biotin) in the bio-layer interferometry)
T1 construct: signal peptide in the construct; human β-Klotho extracellular domain, aa1–992 of the full-length protein aa1-1044 (NM_175737); also called β-Klotho ECD 6 × His; soluble human β-Klotho; source: CHO-EBNA1, transiently transfected, conditioned medium; not shown: His6, C-terminal, kept
T1 sequence (looked up): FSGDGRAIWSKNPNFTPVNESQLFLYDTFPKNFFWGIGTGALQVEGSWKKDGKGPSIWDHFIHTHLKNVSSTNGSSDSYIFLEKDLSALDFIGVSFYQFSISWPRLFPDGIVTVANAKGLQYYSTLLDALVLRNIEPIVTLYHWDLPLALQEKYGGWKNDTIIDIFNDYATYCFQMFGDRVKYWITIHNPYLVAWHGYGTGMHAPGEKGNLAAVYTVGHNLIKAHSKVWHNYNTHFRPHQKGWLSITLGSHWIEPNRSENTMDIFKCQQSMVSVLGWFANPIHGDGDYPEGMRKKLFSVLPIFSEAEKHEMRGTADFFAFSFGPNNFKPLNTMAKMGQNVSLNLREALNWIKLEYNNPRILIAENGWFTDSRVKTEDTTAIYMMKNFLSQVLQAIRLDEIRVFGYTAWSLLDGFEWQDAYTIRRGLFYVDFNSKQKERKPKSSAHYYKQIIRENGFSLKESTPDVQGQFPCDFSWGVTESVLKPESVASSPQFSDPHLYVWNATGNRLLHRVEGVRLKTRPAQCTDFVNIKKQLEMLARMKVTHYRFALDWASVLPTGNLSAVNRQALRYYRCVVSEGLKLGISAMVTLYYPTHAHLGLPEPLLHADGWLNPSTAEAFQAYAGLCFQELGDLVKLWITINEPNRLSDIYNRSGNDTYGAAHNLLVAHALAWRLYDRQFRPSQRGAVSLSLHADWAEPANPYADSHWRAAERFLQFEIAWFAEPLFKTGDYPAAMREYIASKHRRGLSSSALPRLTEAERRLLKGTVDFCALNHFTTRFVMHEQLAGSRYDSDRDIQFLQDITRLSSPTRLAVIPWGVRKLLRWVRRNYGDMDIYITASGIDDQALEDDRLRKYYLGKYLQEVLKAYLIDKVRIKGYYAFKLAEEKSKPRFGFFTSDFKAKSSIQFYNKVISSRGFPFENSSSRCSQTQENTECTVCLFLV


The binders below were run against T1, human β-Klotho extracellular domain … (assay: ELISA; solid-phase binding assay: β-Klotho (500 ng/mL) captured from CHO-EBNA1 conditioned media by plate-coated mouse anti-human β-Klotho antibody; biotinylated FGF21 titrated, 1.5 h room temperature; streptavidin-HRP; three-parameter logistic fit). Settings: one partner purified.

EC50 [nM] | Binder
3.98 | mature human FGF21 (ligand, UniProt Q9NSA1 29-209, looked up, biotin (EZ-Link Sulfo-NHS-LC-Biotin) in the solid-phase binding assay; biotinylated as the labelled ligand in AlphaScreen, human FGF21, mature protein; also called native FGF21) HPIPDSSPLLQFGGQVRQRYLYTDDAQQTEAHLEIREDGTVGGAADQSPESLLQLKALKPGVIQILGVKTSRFLCQRPDGALYGSLHFDPEACSFRELLLEDGYNVYQSEAHGLPLHLPGNKSPHRDPAPRGPARFLPLPGLPPALPEPPGILAPQPPDVGSSDPLSMVGPSQGRSPSYAS

Each binder was assayed against T1, human β-Klotho extracellular domain … (assay: BLI; Octet RED; biotinylated β-Klotho ECD 6×His (10 µg/mL) loaded on streptavidin biosensors; FGF21 or Fc-FGF21 associated 5 min, dissociated 5 min in kinetics buffer; 1:1 binding model). Settings: both partners purified.

fold increase in affinity over native FGF21 [fold] | Binder
4 | mature human FGF21 polypeptide fused with the human Fc fragment at the N-terminus (Fc-FGF21), wild type (Fc fusion, UniProt Q9NSA1 29-209, looked up, human FGF21, mature polypeptide (NM_019113); also called WT Fc-FGF21; source: HEK293-EBNA1, transiently transfected, purified (protein A, MabSelect SuRe); not shown: Fc (human), N-terminal, kept) HPIPDSSPLLQFGGQVRQRYLYTDDAQQTEAHLEIREDGTVGGAADQSPESLLQLKALKPGVIQILGVKTSRFLCQRPDGALYGSLHFDPEACSFRELLLEDGYNVYQSEAHGLPLHLPGNKSPHRDPAPRGPARFLPLPGLPPALPEPPGILAPQPPDVGSSDPLSMVGPSQGRSPSYAS

Each binder was assayed against T1, human β-Klotho extracellular domain … (assay: ELISA; solid-phase binding assay: WT β-Klotho captured from CHO-EBNA1 conditioned media by plate-coated anti-β-Klotho antibody; purified Fc-FGF21 titrated, 1.5 h room temperature; detected with anti-human IgG Fc-HRP). Settings: one partner purified.

fold increase in EC50 compared to WT [fold] | Binder
> 100 | Fc-FGF21, 192D to arginine (Fc fusion, human, UniProt Q9NSA1 29-209, looked up, human FGF21, mature polypeptide (NM_019113); also called D192R; source: HEK293-EBNA1, transiently transfected, purified (protein A); not shown: Fc (human), N-terminal, kept) HPIPDSSPLLQFGGQVRQRYLYTDDAQQTEAHLEIREDGTVGGAADQSPESLLQLKALKPGVIQILGVKTSRFLCQRPDGALYGSLHFDPEACSFRELLLEDGYNVYQSEAHGLPLHLPGNKSPHRDPAPRGPARFLPLPGLPPALPEPPGILAPQPPDVGSSRPLSMVGPSQGRSPSYAS
> 100 | Fc-FGF21, 196M to alanine (Fc fusion, human, UniProt Q9NSA1 29-209, looked up, human FGF21, mature polypeptide (NM_019113); also called M196A; source: HEK293-EBNA1, transiently transfected, purified (protein A); not shown: Fc (human), N-terminal, kept) HPIPDSSPLLQFGGQVRQRYLYTDDAQQTEAHLEIREDGTVGGAADQSPESLLQLKALKPGVIQILGVKTSRFLCQRPDGALYGSLHFDPEACSFRELLLEDGYNVYQSEAHGLPLHLPGNKSPHRDPAPRGPARFLPLPGLPPALPEPPGILAPQPPDVGSSDPLSAVGPSQGRSPSYAS
> 100 | Fc-FGF21, 193P to arginine (Fc fusion, human, UniProt Q9NSA1 29-209, looked up, human FGF21, mature polypeptide (NM_019113); also called P193R; source: HEK293-EBNA1, transiently transfected, purified (protein A); not shown: Fc (human), N-terminal, kept) HPIPDSSPLLQFGGQVRQRYLYTDDAQQTEAHLEIREDGTVGGAADQSPESLLQLKALKPGVIQILGVKTSRFLCQRPDGALYGSLHFDPEACSFRELLLEDGYNVYQSEAHGLPLHLPGNKSPHRDPAPRGPARFLPLPGLPPALPEPPGILAPQPPDVGSSDRLSMVGPSQGRSPSYAS
> 100 | Fc-FGF21, 193P to alanine (Fc fusion, human, UniProt Q9NSA1 29-209, looked up, human FGF21, mature polypeptide (NM_019113); also called P193A; source: HEK293-EBNA1, transiently transfected, purified (protein A); not shown: Fc (human), N-terminal, kept) HPIPDSSPLLQFGGQVRQRYLYTDDAQQTEAHLEIREDGTVGGAADQSPESLLQLKALKPGVIQILGVKTSRFLCQRPDGALYGSLHFDPEACSFRELLLEDGYNVYQSEAHGLPLHLPGNKSPHRDPAPRGPARFLPLPGLPPALPEPPGILAPQPPDVGSSDALSMVGPSQGRSPSYAS
> 100 | Fc-FGF21, 194L to alanine (Fc fusion, human, UniProt Q9NSA1 29-209, looked up, human FGF21, mature polypeptide (NM_019113); also called L194A; source: HEK293-EBNA1, transiently transfected, purified (protein A); not shown: Fc (human), N-terminal, kept) HPIPDSSPLLQFGGQVRQRYLYTDDAQQTEAHLEIREDGTVGGAADQSPESLLQLKALKPGVIQILGVKTSRFLCQRPDGALYGSLHFDPEACSFRELLLEDGYNVYQSEAHGLPLHLPGNKSPHRDPAPRGPARFLPLPGLPPALPEPPGILAPQPPDVGSSDPASMVGPSQGRSPSYAS
> 100 | Fc-FGF21, 194L to arginine (Fc fusion, human, UniProt Q9NSA1 29-209, looked up, human FGF21, mature polypeptide (NM_019113); also called L194R; source: HEK293-EBNA1, transiently transfected, purified (protein A); not shown: Fc (human), N-terminal, kept) HPIPDSSPLLQFGGQVRQRYLYTDDAQQTEAHLEIREDGTVGGAADQSPESLLQLKALKPGVIQILGVKTSRFLCQRPDGALYGSLHFDPEACSFRELLLEDGYNVYQSEAHGLPLHLPGNKSPHRDPAPRGPARFLPLPGLPPALPEPPGILAPQPPDVGSSDPRSMVGPSQGRSPSYAS
> 100 | Fc-FGF21, 192D to alanine (Fc fusion, human, UniProt Q9NSA1 29-209, looked up, human FGF21, mature polypeptide (NM_019113); also called D192A; source: HEK293-EBNA1, transiently transfected, purified (protein A); not shown: Fc (human), N-terminal, kept) HPIPDSSPLLQFGGQVRQRYLYTDDAQQTEAHLEIREDGTVGGAADQSPESLLQLKALKPGVIQILGVKTSRFLCQRPDGALYGSLHFDPEACSFRELLLEDGYNVYQSEAHGLPLHLPGNKSPHRDPAPRGPARFLPLPGLPPALPEPPGILAPQPPDVGSSAPLSMVGPSQGRSPSYAS
> 100 | Fc-FGF21, 196M to arginine (Fc fusion, human, UniProt Q9NSA1 29-209, looked up, human FGF21, mature polypeptide (NM_019113); also called M196R; source: HEK293-EBNA1, transiently transfected, purified (protein A); not shown: Fc (human), N-terminal, kept) HPIPDSSPLLQFGGQVRQRYLYTDDAQQTEAHLEIREDGTVGGAADQSPESLLQLKALKPGVIQILGVKTSRFLCQRPDGALYGSLHFDPEACSFRELLLEDGYNVYQSEAHGLPLHLPGNKSPHRDPAPRGPARFLPLPGLPPALPEPPGILAPQPPDVGSSDPLSRVGPSQGRSPSYAS
